Measured values reported in US20160272680A1 (Bristol-Myers Squibb, published 2016).
One block for each binder: values may come before it. Numbered stars: 1 amine (or outer) side, 2 acyl side, 3 side chain; on linkers, the order of the positions; unused ones are H or OH. Bridge positions count the residues as written; N and C are the ends. Square brackets hold non-standard residues; d marks the D form. Ends that are not written are not given here. * marks the point of attachment. Trp(1-CH2CO) = O=C([C@H](Cc1cn(CC(=O)[*:3])c2ccccc12)N[*:1])[*:2]; Hyp = O=C(O)[C@@H]1C[C@@H](O)CN1; NMeNle = CCCC[C@H](NC)C(=O)O; NMeA = CN[C@@H](C)C(=O)O; Dab = NCC[C@H](N)C(=O)O; Dap = NC[C@H](N)C(=O)O; NH(propargyl) = C#CCN*; NHBn = c1ccc(CN*)cc1

Tests used:
hPDL1(19-239)-TVMV-His [1] = target: T1, hPDL1(19-239)-TVMV-His (human, UniProt Q9NZQ7 19-239); assay: HTRF competition of PD-1-Ig binding to PD-L1-His; code A=0.01-0.06 µM
T1 construct: Expressed in HEK293T cells; The text says amino acids 18-239, but the construct is named hPD-L1(19-239); The whole entry, including the TVMV site and His tag, is the protein used in the assay; also called PD-L1-TVMV-His; PD-L1-His
Protocol: (§1) Homogenous Time-Resolved Fluorescence (HTRF) Assays of Binding of Soluble PD-1 to Soluble PD-L1. Soluble PD-1 and soluble PD-L1 refers to proteins with carboxyl-end truncations that remove the transmembrane-spanning regions and are fused to heterologous sequences, specifically the Fc portion of the human immunoglobuling G sequence (Ig) or the hexahistidine epitope tag (His). All binding studies were performed in an HTRF assay buffer consisting of dPBS supplemented with 0.1% (w/v) bovine serum albumin and 0.05% (v/v) Tween-20. For the PD-1-Ig/PD-L1-His binding assay, inhibitors were pre-incubated with PD-L1-His (10 nM final) for 15 m in 4 μl of assay buffer, followed by addition of PD-1-Ig (20 nM final) in 1 μl of assay buffer and further incubation for 15 m. PD-L1 fusion proteins from either human, cynomologous macaques, mouse, or other species were used. HTRF detection was achieved using europium crypate-labeled anti-Ig monoclonal antibody (1 nM final) and allophycocyanin (APC) labeled anti-His monoclonal antibody (20 nM final). Antibodies were diluted in HTRF detection buffer and 5 μl was dispensed on top of binding reaction. The reaction was allowed to equilibrate for 30 minutes and signal (665 nm/620 nm ratio) was obtained using an EnVision fluorometer. Additional binding assays were established between PD-1-Ig/PD-L2-His (20 and 5 nM, respectively), CD80-His/PD-L1-Ig (100 and 10 nM, respectively) and CD80-His/CTLA4-Ig (10 and 5 nM, respectively). Binding/competition studies between biotinylated Compound No. 71 and human PD-L1-His were performed as follows. Macrocyclic peptide inhibitors were pre-incubated with PD-L1-His (10 nM final) for 60 minutes in 4 μl of assay buffer followed by addition of biotinylated Compound No. 71 (0.5 nM final) in 1 μl of assay buffer. Binding was allowed to equilibrate for 30 minutes followed by addition of europium crypated labeled Streptavidin (2.5 pM final) and APC-labeled anti-His (20 nM final) in 5 μl of HTRF buffer. The reaction was allowed to equilibrate for 30 m and signal (665 nm/620 nm ratio) was obtained using an EnVision fluorometer.

hPDL1(19-239)-TVMV-His [2] = target: T1, hPDL1(19-239)-TVMV-His; assay: HTRF competition of PD-1-Ig binding to PD-L1-His; code B=0.004-0.0099 µM
Protocol: as §1

T1 sequence (Q9NZQ7 other isoform, or with tags, fused parts or gaps limits assumed): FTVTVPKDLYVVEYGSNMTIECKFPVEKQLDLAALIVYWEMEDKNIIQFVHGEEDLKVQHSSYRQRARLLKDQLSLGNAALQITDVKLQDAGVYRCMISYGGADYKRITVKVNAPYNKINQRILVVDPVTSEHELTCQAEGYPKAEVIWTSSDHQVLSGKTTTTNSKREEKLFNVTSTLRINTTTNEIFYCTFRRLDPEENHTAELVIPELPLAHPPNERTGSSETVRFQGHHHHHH

B1: Example 13080 (peptide)
peptide: {CH2CO}-Y[NMeA]NP[Dap]L[Hyp]W[Dab][Trp(1-CH2CO)][NMeNle][NMeNle]LCG-NHBn
modifications: thioether N-14
SMILES: CCCC[C@H]1C(=O)N(C)[C@@H](CCCC)C(=O)N[C@@H](CC(C)C)C(=O)N[C@H](C(=O)NCC(=O)NCc2ccccc2)CSCC(=O)N[C@@H](Cc2ccc(O)cc2)C(=O)N(C)[C@@H](C)C(=O)N[C@@H](CC(N)=O)C(=O)N2CCC[C@H]2C(=O)N[C@@H](CN)C(=O)N[C@@H](CC(C)C)C(=O)N2C[C@H](O)C[C@H]2C(=O)N[C@@H](Cc2c[nH]c3ccccc23)C(=O)N[C@@H](CCN)C(=O)N[C@@H](Cc2cn(CC(=O)O)c3ccccc23)C(=O)N1C
notes: Macrocyclic peptide
IC50 (hPDL1(19-239)-TVMV-His [2]): 4 to 9.9 nM

Binder: {CH2CO}-Y[NMeA]NP[Dap]L[Hyp]WGW[NMeNle][NMeNle]LCG-{morpholine amide} (thioether N-14, Macrocyclic peptide) [Example 13087]
IC50 (hPDL1(19-239)-TVMV-His [1]): 10 to 60 nM

Binder: {CH2CO}-Y[NMeA]NP[Dap]L[Hyp]WGW[NMeNle][NMeNle]LCG-{N‑(2-aminoethyl)‑N‑methyl carbamic acid tert‑butyl ester} (thioether N-14, Macrocyclic peptide) [Example 13113]
IC50 (hPDL1(19-239)-TVMV-His [1]): 10 to 60 nM

Binder: {CH2CO}-Y[NMeA]NP[Dap]L[Hyp]WGW[NMeNle][NMeNle]LCG-{4‑piperidinemethanol} (thioether N-14, Macrocyclic peptide) [Example 13111]
IC50 (hPDL1(19-239)-TVMV-His [1]): 10 to 60 nM

Binder: {CH2CO}-Y[NMeA]NP[Dap]L[Hyp]WGW[NMeNle][NMeNle]LCG-{tert‑butyl 3‑aminopropanoate} (thioether N-14, Macrocyclic peptide) [Example 13109]
IC50 (hPDL1(19-239)-TVMV-His [1]): 10 to 60 nM

Binder: {CH2CO}-Y[NMeA]NP[Dap]L[Hyp]WGW[NMeNle][NMeNle]LCG-{4‑aminocyclohexanol} (thioether N-14, Macrocyclic peptide) [Example 13106]
IC50 (hPDL1(19-239)-TVMV-His [1]): 10 to 60 nM

Binder: {CH2CO}-Y[NMeA]NP[Dap]L[Hyp]WGW[NMeNle][NMeNle]LCG-{1‑(3-aminopropyl)imidazole amide} (thioether N-14, Macrocyclic peptide) [Example 13099]
IC50 (hPDL1(19-239)-TVMV-His [1]): 10 to 60 nM

Binder: {CH2CO}-Y[NMeA]NP[Dap]L[Hyp]WGW[NMeNle][NMeNle]LCG-{3‑(aminomethyl)pyridine amide} (thioether N-14, Macrocyclic peptide) [Example 13094]
IC50 (hPDL1(19-239)-TVMV-His [1]): 10 to 60 nM

Binder: {CH2CO}-Y[NMeA]NP[Dap]L[Hyp]WGW[NMeNle][NMeNle]LCG-{N‑(3-aminopropyl)diethanolamine} (thioether N-14, Macrocyclic peptide) [Example 13107]
IC50 (hPDL1(19-239)-TVMV-His [1]): 10 to 60 nM

Binder: {CH2CO}-Y[NMeA]NP[Dap]L[Hyp]WGW[NMeNle][NMeNle]LCG-{ethanolamine amide} (thioether N-14, Macrocyclic peptide) [Example 13095]
IC50 (hPDL1(19-239)-TVMV-His [1]): 10 to 60 nM

Binder: {CH2CO}-Y[NMeA]NP[Dap]L[Hyp]WGW[NMeNle][NMeNle]LCG-butylamide (thioether N-14, Macrocyclic peptide) [Example 13100]
IC50 (hPDL1(19-239)-TVMV-His [1]): 10 to 60 nM

Binder: {CH2CO}-Y[NMeA]NP[Dap]L[Hyp]WGW[NMeNle][NMeNle]LCG-{pyrrolidin‑1‑yl amide} (thioether N-14, Macrocyclic peptide) [Example 13085]
IC50 (hPDL1(19-239)-TVMV-His [1]): 10 to 60 nM

The next lines start with the values.

IC50 (hPDL1(19-239)-TVMV-His [1]): 10 to 60 nM
Binder: {CH2CO}-Y[NMeA]NP[Dap]L[Hyp]WGW[NMeNle][NMeNle]LCG-{2‑aminoethylmethylsulfone} (thioether N-14, Macrocyclic peptide) [Example 13116]

IC50 (hPDL1(19-239)-TVMV-His [1]): 10 to 60 nM
Binder: {CH2CO}-Y[NMeA]NP[Dap]L[Hyp]WGW[NMeNle][NMeNle]LCG-cyclobutylamide (thioether N-14, Macrocyclic peptide) [Example 13092]

IC50 (hPDL1(19-239)-TVMV-His [1]): 10 to 60 nM
Binder: {CH2CO}-Y[NMeA]NP[Dap]L[Hyp]WGW[NMeNle][NMeNle]LCG-{2‑phenoxyethylamine} (thioether N-14, Macrocyclic peptide) [Example 13108]

IC50 (hPDL1(19-239)-TVMV-His [1]): 10 to 60 nM
Binder: {CH2CO}-Y[NMeA]NP[Dap]L[Hyp]WGW[NMeNle][NMeNle]LCG-{2‑methoxyethylamide} (thioether N-14, Macrocyclic peptide) [Example 13082]

IC50 (hPDL1(19-239)-TVMV-His [1]): 10 to 60 nM
B2: Example 13096 (peptide)
peptide: {CH2CO}-Y[NMeA]NP[Dap]L[Hyp]WGW[NMeNle][NMeNle]LCG-{NH(propargyl)}
modifications: thioether N-14
SMILES: C#CCNC(=O)CNC(=O)[C@@H]1CSCC(=O)N[C@@H](Cc2ccc(O)cc2)C(=O)N(C)[C@@H](C)C(=O)N[C@@H](CC(N)=O)C(=O)N2CCC[C@H]2C(=O)N[C@@H](CN)C(=O)N[C@@H](CC(C)C)C(=O)N2C[C@H](O)C[C@H]2C(=O)N[C@@H](Cc2c[nH]c3ccccc23)C(=O)NCC(=O)N[C@@H](Cc2c[nH]c3ccccc23)C(=O)N(C)[C@@H](CCCC)C(=O)N(C)[C@@H](CCCC)C(=O)N[C@@H](CC(C)C)C(=O)N1
notes: Macrocyclic peptide

IC50 (hPDL1(19-239)-TVMV-His [1]): 10 to 60 nM
Binder: {CH2CO}-Y[NMeA]NP[Dap]L[Hyp]WGW[NMeNle][NMeNle]LCG-{N‑methyl‑N‑propylamide} (thioether N-14, Macrocyclic peptide) [Example 13084]

IC50 (hPDL1(19-239)-TVMV-His [1]): 10 to 60 nM
Binder: {CH2CO}-Y[NMeA]NP[Dap]L[Hyp]WGW[NMeNle][NMeNle]LCG-allylamide (thioether N-14, Macrocyclic peptide) [Example 13097]

IC50 (hPDL1(19-239)-TVMV-His [1]): 10 to 60 nM
Binder: {CH2CO}-Y[NMeA]NP[Dap]L[Hyp]WGW[NMeNle][NMeNle]LCG (thioether N-14; not fully specified (C-terminus), Macrocyclic peptide) [Example 13104]

IC50 (hPDL1(19-239)-TVMV-His [2]): 4 to 9.9 nM
Binder: {CH2CO}-Y[NMeA]NP[Dap]L[Hyp]WGW[NMeNle][NMeNle]LCG-{3‑aminopropanamide} (thioether N-14, Macrocyclic peptide) [Example 13110]

IC50 (hPDL1(19-239)-TVMV-His [1]): 10 to 60 nM
Binder: {CH2CO}-Y[NMeA]NP[Dap]L[Hyp]WGW[NMeNle][NMeNle]LCG-{2‑(phenylthio)ethanamine amide} (thioether N-14, Macrocyclic peptide) [Example 13101]

IC50 (hPDL1(19-239)-TVMV-His [1]): 10 to 60 nM
Binder: {CH2CO}-Y[NMeA]NP[Dap]L[Hyp]WGW[NMeNle][NMeNle]LCG-{N,N‑dimethyl‑1,3‑propanediamine amide} (thioether N-14, Macrocyclic peptide) [Example 13098]

IC50 (hPDL1(19-239)-TVMV-His [1]): 10 to 60 nM
Binder: {CH2CO}-Y[NMeA]NP[Dap]L[Hyp]WGW[NMeNle][NMeNle]LCG-{4‑(dimethylamino)piperidine amide} (thioether N-14, Macrocyclic peptide) [Example 13103]

IC50 (hPDL1(19-239)-TVMV-His [2]): 4 to 9.9 nM
Binder: {CH2CO}-Y[NMeA]NP[Dap]L[Hyp]WGW[NMeNle][NMeNle]LCG-cyclopropylamide (thioether N-14, Macrocyclic peptide) [Example 13091]

IC50 (hPDL1(19-239)-TVMV-His [1]): 10 to 60 nM
Binder: {CH2CO}-Y[NMeA]NP[Dap]L[Hyp]WGW[NMeNle][NMeNle]LCG-{N‑Boc‑1,5‑diaminopentane} (thioether N-14, Macrocyclic peptide) [Example 13112]

IC50 (hPDL1(19-239)-TVMV-His [1]): 10 to 60 nM
Binder: {CH2CO}-Y[NMeA]NP[Dap]L[Hyp]WGW[NMeNle][NMeNle]LCG-{methylpiperazine amide} (thioether N-14, Macrocyclic peptide) [Example 13089]

IC50 (hPDL1(19-239)-TVMV-His [1]): 10 to 60 nM
Binder: {CH2CO}-Y[NMeA]NP[Dap]L[Hyp]WGW[NMeNle][NMeNle]LCG-{4‑(4-chlorophenyl)piperidine} (thioether N-14, Macrocyclic peptide) [Example 13115]

IC50 (hPDL1(19-239)-TVMV-His [2]): 4 to 9.9 nM
Binder: {CH2CO}-Y[NMeA]NP[Dap]L[Hyp]WGW[NMeNle][NMeNle]LCG-{piperidin‑1‑yl amide} (thioether N-14, Macrocyclic peptide) [Example 13086]
